Assay [1] has as its target monomeric SARS-CoV-2 receptor binding domain (RBD) (SARS-CoV-2, UniProt P0DTC2). The experiment in a line: SPR. Background: In SPR one partner is held on a chip, and binding of the other changes the refractive index at the surface.
The target of assay [2] is SARS-CoV-2 RBD sortase A conjugated nanoparticle (RBD-scNP) (SARS-CoV-2, Wuhan strain (RBD moiety), UniProt P0DTC2). The experiment in a line: BLI.

B1: DH1047 antigen binding fragment (Fab) (Fab, V domains shown)
VH: QVQLVQSGAEVKKPGASVQVSCQASANTFTNHYIHWVRQAPGQGLEWMGIIYPTGGNTIYAQGFQGRVTMTRDTSLNTIYLELSSLRSEDTAVYYCARDVRVDDSWSGYDLLSGGTYFDYWGQGTLVTVSS
VL: not shown
For B1, the dissociation constant (Kd) in assay [1] was below 20 pM.

B2: DH1041 (ACE2 binding site-targeting RBD neutralizing antibody) (antibody, V domains shown)
VH: EVQLVESGGGLVQPGGSLRLSCAASGVTFSSYWMSWVRQAPGKGLEWVANIRQDGSEKYSVDSVKGRFTISRDNAKNSLYLQMNSLRAEDTAVYYCARARRADNSGYYGFHFDCWGQGTLVTVSS
VL: QSVLTQPPSVSGAPGQRVTISCTGSSSNIGAGYDVHWYQQLPGTAPKLLIYGNNNRPSGVPDRFSDSKSGTSASLAITRLQAEDEADYYCQSYDSSLSGWVFGGGTKLTVL
For the molecule B2, in assay [2], the binding result is on record as “binds”.

In general, Kd refers to the constant that tells how readily two partners part at equilibrium. Lower therefore signals higher affinity.

These data come from article doi:10.1101/2021.02.17.431492 (bioRxiv, 2021).
